From patent US20100298225A1, “PEPTIDE GAP JUNCTION MODULATORS” (priority 2007, published 2010) come the findings set out here.

“Also recorded” adds a separate entry of the source.

Assay [1] has as its target T1, carboxyl terminal domain (CT) of Cx43 (Rattus norvegicus, UniProt P08050).
T1 construct: GST (N, cleaved yes); made in house; host or cells: E. coli BL-21
Kind of assay: Peptide binding to Cx43CT determined using surface plasmon resonance (SPR). Conditions: immobilised recombinant Cx43CT. Here is the method: 277(39):36706-36714 (2002), which is hereby incorporated by reference in its entirety. Briefly, cDNA derived from rat Cx43 was inserted into pGEX-6P-2 (Amersham) and expressed in E. coli (BL-21). The resultant GST-fusion protein was cleaved from the GST PreScission Protease® (Amersham Biosciences). The recombinant product after cleavage contained the sequence 255-382 of rCx43 preceded by four additional amino acids (GPLG). Protein concentration was measured using the Bio-Rad DC Protein Assay. Protein purity was assessed by SDS-PAGE.
Recombinant Cx43CT was covalently bound to a carboxylmethyl dextran matrix (Salamon et al., “Surface Plasmon Resonance Spectroscopy as a Tool for Investigating the Biochemical and Biophysical Properties of Membrane Protein Systems. II: Applications to Biological Systems,” Biochim. Biophys. Acta 1331(2):131-152 (1997), which is hereby incorporated by reference in its entirety). Specific peptides were presented and, when feasible, dissociation constants (KD) were calculated from the time course of binding and unbinding of the ligand, using a 1:1 (Langmuir) association and dissociation kinetic model (Biacore software package). In both phases (association and dissociation), the first 5-8 seconds of recording were not included in the fit, to avoid artifacts resulting from peptide distribution within the flow cells (Lang et al., “Surface Plasmon Resonance as a Method to Study the Kinetics and Amplitude of Protein-protein Binding,” in PRACTICAL METHODS IN CARDIOVASCULAR RESEARCH 936-947 (Stefan Dhein, Friedrich Wilhelm Mohr & Mario Delmar eds., 2005), which is hereby incorporated by reference in its entirety).
The peptides shown in table 2 and 3 were tested for binding to the carboxyl terminal domain (CT) of Cx43 using Surface Plasmon Resonance (“SPR”). SPR is a method that was used to identify the original RXPE sequence (Shibayama et al., “Identification of a Novel Peptide that Interferes with the Chemical Regulation of Connexin-43,” Circ. Res. 98:1365-72 (2006)). The amplitude of the response is also a function of the mass of the ligate, and the normalized data according to the individual peptide Mw's are shown in table 3.
In general terms: Surface plasmon resonance follows binding to a sensor surface in real time, without labels.

The target in assay [2] is T2, Cx43-expressing N2a cells (Rattus norvegicus, UniProt P08050).
T2 construct: expressed in transfected cells; host or cells: N2a (neuroblastoma) cells
Kind of assay: Dual patch clamp: octanol-induced uncoupling, junctional conductance between cell pairs. Format: cell-based. Conditions: for Effect on octanol-induced uncoupling / Ability to re-open gap junctions closed by the uncoupler (revert uncoupled cells to coupled): 0.1 mM peptide in internal pipette solution, octanol superfusion; for Effect on octanol-induced uncoupling: Vj 60 mV; for Average junctional conductance (Gj) as a function of time after onset of octanol: 0.1 mM peptide in pipette, Gj relative to value before octanol, N=7 pairs; for Cell pairs that remained coupled / uncoupled following onset of octanol superfusion: seven cell pairs, peptide in pipette, uncoupling = zero junctional current at 60-mV pulse. As to the method: Experiments were conducted on N2a (Neuroblastoma) cells. Cx43 was expressed either in a lac-switch stable system (induced by 0.1-1.0 mM of IPTG (Zhong et al., “LacSwitch II Regulation of Connexin43 cDNA Expression Enables Gap-junction Single-channel Analysis,” Biotechniques 34(5):1034-1034, 1041-1044, 1046 (2003), which is hereby incorporated by reference in its entirety)) or transiently using an IRES plasmid coding for eGFP (Seki et al., “Modifications in the Biophysical Properties of Connexin43 Channels by a Peptide of the Cytoplasmic Loop Region,” Circ. Res. 95(4):e22-e28 (2004); Seki et al., “Loss of Electrical Communication, but Not Plaque Formation, After Mutations in the Cytoplasmic Loop of Connexin43,” Heart Rhythm. 1(2):227-233 (2004), which are hereby incorporated by reference in their entirety). M257 (a mutant of Cx43 truncated at amino acid 257 (Morley et al., “Intramolecular Interactions Mediate pH Regulation of Connexin43 Channels,” Biophys. J. 70(3):1294-1302 (1996), which is hereby incorporated by reference in its entirety)) was transiently expressed in N2a cells also using an eGFP-containing IRES plasmid. Cells were placed on the stage of an inverted microscope equipped for epifluorescence (Nikon Diaphoto200, Filter: 520 to 560 nm). Junctional current (I) was recorded from eGFP-positive cell pairs in a dual-whole-cell voltage clamp configuration (holding potentials: −40 mV; transjuctional voltage, Vj, +[…]; step duration, 10-30 seconds). Patch pipettes were filled with a cesium-containing solution (Seki et al., “Modifications in the Biophysical Properties of Connexin43 Channels by a Peptide of the Cytoplasmic Loop Region,” Circ. Res. 95(4):e22-e28 (2004); Seki et al., “Loss of Electrical Communication, but Not Plaque Formation, After Mutations in the Cytoplasmic Loop of Connexin43,” Heart Rhythm. 1(2):227-233 (2004), which are hereby incorporated by reference in their entirety). For the low pH experiments, HEPES was replaced by MES (10 mM). Pipette resistance was 4.0-6.0MΩ. Synthetic peptides were diluted in the pipette solution to a final concentration of 0.1 mM. During recording, cells were kept at room temperature in a cesium-containing solution (Seki et al., “Modifications in the Biophysical Properties of Connexin43 Channels by a Peptide of the Cytoplasmic Loop Region,” Circ. Res. 95(4):e22-e28 (2004); Seki et al., “Loss of Electrical Communication, but Not Plaque Formation, After Mutations in the Cytoplasmic Loop of Connexin43,” Heart Rhythm. 1(2):227-233 (2004), which are hereby incorporated by reference in their entirety). For some experiments, octanol (2.0 mM) was superfused during recording. Data acquisition and recording, and criteria for single channel detection were as reported in Seki et al., “Modifications in the Biophysical Properties of Connexin43 Channels by a Peptide of the Cytoplasmic Loop Region,” Circ. Res. 95(4):e22-e28 (2004) and Seki et al., “Loss of Electrical Communication, but Not Plaque Formation, After Mutations in the Cytoplasmic Loop of Connexin43,” Heart Rhythm. 1(2):227-233 (2004), which are hereby incorporated by reference in their entirety.
Compounds were tested for their ability to interfere with octanol-induced uncoupling. Compounds are tested for their ability to interfere with acidification induces uncoupling.
Experiments were modeled after those described in Shibayama et al (2006). Junctional conductance between Cx43-expressing N2a cell pairs was assessed using conventional dual patch clamp. Peptides were diluted in the patch pipette solution and the cells will be exposed either to octanol or to a low intracellular pH. Control experiments were carried out in the absence of the compound. The results are shown in FIGS. 3A-E, which are graphs of the time course of octanol-induced changes in coupling recorded from Cx43-expressing N2a cells. FIGS. 3A-E relate to peptides 2517, 2518, 2529, 2520 and 2624 respectively. […]
On the technique in general: The patch-clamp technique gives a direct electrical read-out from membranes.

T2 sequence (P08050 whole entry): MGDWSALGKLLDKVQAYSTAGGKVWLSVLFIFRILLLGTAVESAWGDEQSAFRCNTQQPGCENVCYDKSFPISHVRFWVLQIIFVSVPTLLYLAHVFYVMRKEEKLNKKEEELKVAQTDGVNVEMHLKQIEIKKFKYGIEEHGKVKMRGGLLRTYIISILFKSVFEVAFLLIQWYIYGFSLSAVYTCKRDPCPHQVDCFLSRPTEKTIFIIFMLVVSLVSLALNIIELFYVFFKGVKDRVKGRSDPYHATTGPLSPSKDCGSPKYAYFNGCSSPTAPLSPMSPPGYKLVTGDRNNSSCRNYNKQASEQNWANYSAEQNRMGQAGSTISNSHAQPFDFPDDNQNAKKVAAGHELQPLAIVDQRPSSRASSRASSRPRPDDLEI
T1 sequence (P08050 255-382): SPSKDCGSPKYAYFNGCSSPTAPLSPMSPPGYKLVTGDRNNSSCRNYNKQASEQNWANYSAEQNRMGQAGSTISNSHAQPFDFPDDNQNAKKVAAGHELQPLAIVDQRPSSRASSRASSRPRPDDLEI

In the case of “Ac-Arg-Arg-Asn-Tyr-Arg-Arg-Asn-Tyr-NH2 (Ac-RRNYRRNY-NH2) [Compound 2497]”, the SPR respons turned out to be 30.2 arbitrary units in assay [1] (peptide 25 uM); 84.2 arbitrary units in assay [1] (peptide 100 uM); 201.5 arbitrary units in assay [1] (peptide 250 uM); 327.5 arbitrary units in assay [1] (peptide 500 uM); 565.2 arbitrary units in assay [1] (peptide 1 mM). The “Effect on octanol-induced uncoupling” value in assay [2] was “prevented octanol-induced uncoupling; also recorded: preventing the uncoupling of GJ”.

In the case of “Ac-Arg-Arg-Asn-Tyr-Gly-Gly-Gly-Ser-Ala-Val-Pro-Phe-Tyr-Ser-His-Ser-Arg-Arg-Asn-Tyr-Gly-Gly-Gly-Ser-Ala-Val-Pro-Phe-Tyr-Ser-His-Ser-Arg-Arg-Asn-Tyr-NH2 (Ac-RRNYGGGSAVPFYSHSRRNYGGGSAVPFYSHSRRNY-NH2) [Compound 2371]”, in assay [2], the “Ability to re-open gap junctions closed by the uncoupler (revert uncoupled cells to coupled)” value is recorded as “able to revert uncoupled cells to couple cells; also recorded: re-open gap junctions that were initially closed by the uncoupler”; the “Effect on octanol-induced uncoupling” value is given as “prevented octanol-induced uncoupling”; the “Average junctional conductance (Gj) as a function of time after onset of octanol” value was “decreased at first and then increased”; the “Cell pairs that remained coupled / uncoupled following onset of octanol superfusion” value is “uncoupled and then recoupled”. The “Decrease in Gj three minutes after onset of octanol” value in assay [2] (junctional current traces of a cell pair, peptide in internal pipette solution) was “no or only a minor decrease in Gj”.

With “Ac-Arg-Arg-Asn-Tyr-Gly-Gly-Gly-Ser-Ala-Val-Pro-Phe-Tyr-Ser-His-Ser-Arg-Arg-Asn-Tyr-NH2 (Ac-RRNYGGGSAVPFYSHSRRNY-NH2) [Compound 2366]”, in assay [2], the “Ability to re-open gap junctions closed by the uncoupler (revert uncoupled cells to coupled)” value is on record as “able to revert uncoupled cells to couple cells; also recorded: re-open gap junctions that were initially closed by the uncoupler”; the “Effect on octanol-induced uncoupling” value was “prevented octanol-induced uncoupling”; the “Average junctional conductance (Gj) as a function of time after onset of octanol” value was “decreased at first and then increased”; the “Cell pairs that remained coupled / uncoupled following onset of octanol superfusion” value was “uncoupled and then recoupled”.
